The values below come from paper PMC4284802, “The tumour suppressor DLC2 ensures mitotic fidelity by coordinating spindle positioning and cell–cell adhesion” (Nature Communications, 2014).

This test deals with T1, His-tagged recombinant protein containing the forkhead-associated (FHA) domain of Kif1B (residues 367-999) (human, UniProt O60333-2 367-999).
T1 construct: cloned into pRSET-A; Vector pRSET-A; also called Kif1B FHA domain; His-Kif1B; source: E. coli BL21pLysS, purified
T1 sequence (looked up): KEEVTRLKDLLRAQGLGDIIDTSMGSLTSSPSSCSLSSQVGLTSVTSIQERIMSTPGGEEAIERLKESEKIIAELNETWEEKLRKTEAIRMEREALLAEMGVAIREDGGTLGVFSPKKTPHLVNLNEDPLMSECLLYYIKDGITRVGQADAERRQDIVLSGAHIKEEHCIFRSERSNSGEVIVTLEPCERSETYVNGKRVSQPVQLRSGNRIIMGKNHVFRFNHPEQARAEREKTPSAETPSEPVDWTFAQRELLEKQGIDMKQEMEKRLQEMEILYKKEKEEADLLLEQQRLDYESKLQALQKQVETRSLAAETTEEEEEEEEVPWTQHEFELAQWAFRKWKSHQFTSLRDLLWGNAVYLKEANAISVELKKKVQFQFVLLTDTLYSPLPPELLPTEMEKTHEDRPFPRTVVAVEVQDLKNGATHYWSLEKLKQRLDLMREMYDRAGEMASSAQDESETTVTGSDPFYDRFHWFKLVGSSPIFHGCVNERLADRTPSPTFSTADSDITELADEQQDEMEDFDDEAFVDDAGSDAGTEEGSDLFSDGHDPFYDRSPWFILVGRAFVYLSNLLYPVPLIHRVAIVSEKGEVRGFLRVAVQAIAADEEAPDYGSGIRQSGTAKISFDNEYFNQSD
Description: pull-down; purified GST-SAM domain on glutathione-agarose beads incubated 2 h with recombinant His-tagged Kif1B fusion proteins; immunoblot with anti-GST and anti-His. To be noted: both partners purified.

B1: DLC2 SAM domain (residues 1-130) fused to GST (domain or fragment, human, UniProt Q9Y3M8-1 1-130, looked up)
chain: MFSQVPRTPASGCYYLNSMTPEGQEMYLRFDQTTRRSPYRMSRILARHQLVTKIQQEIEAKEACDWLRAAGFPQYAQLYEDSQFPINIVAVKNDHDFLEKDLVEPLCRRLNTLNKCASMKLDVNFQRKKG
notes: cloned into pGEX4T3; Vector pGEX4T3; also called SAM domain construct; GST-fusion protein containing the SAM domain; source: E. coli BL21pLysS, purified (glutathione-agarose)
On to B1, for which the binding result is reported as “binds”.
